The text below walks through data of patent US6869778.

The target in data set [1] is soluble fibrin monomers (DESAFIB).
In data set [2] the target is stimulatory thirteen amino acid peptide P368.
The next data set concerns the target T1, lys-plasminogen, P00747.
T1 chain: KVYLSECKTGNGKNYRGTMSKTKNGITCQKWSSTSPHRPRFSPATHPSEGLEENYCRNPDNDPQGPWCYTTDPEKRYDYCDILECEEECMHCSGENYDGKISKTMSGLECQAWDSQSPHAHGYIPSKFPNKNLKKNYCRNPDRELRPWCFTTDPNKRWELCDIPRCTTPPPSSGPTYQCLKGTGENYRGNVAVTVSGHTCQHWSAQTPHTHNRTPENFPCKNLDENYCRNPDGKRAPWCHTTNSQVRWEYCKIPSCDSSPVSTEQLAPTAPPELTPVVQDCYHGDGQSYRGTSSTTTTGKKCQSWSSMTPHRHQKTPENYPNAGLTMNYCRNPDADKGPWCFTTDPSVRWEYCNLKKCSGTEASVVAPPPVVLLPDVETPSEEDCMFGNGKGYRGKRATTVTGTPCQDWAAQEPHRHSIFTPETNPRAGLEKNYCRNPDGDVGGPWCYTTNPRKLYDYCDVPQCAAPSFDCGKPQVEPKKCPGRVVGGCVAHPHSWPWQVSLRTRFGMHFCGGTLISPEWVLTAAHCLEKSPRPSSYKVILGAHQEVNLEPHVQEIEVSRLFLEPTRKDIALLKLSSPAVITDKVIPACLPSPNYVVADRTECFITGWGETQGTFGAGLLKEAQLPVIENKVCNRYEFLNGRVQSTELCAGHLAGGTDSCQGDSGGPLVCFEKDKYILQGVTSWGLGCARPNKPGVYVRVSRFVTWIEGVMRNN

B1: t-PA/R275E,K429Y, single-chain form (protein)
chain: SYQVICRDEKTQMIYQQHQSWLRPVLRSNRVEYCWCNSGRAQCHSVPVKSCSEPRCFNGGTCQQALYFSDFVCQCPEGFAGKCCEIDTRATCYEDQGISYRGTWSTAESGAECTNWNSSALAQKPYSGRRPDAIRLGLGNHNYCRNPDRDSKPWCYVFKAGKYSSEFCSTPACSEGNSDCYFGNGSAYRGTHSLTESGASCLPWNSMILIGKVYTAQNPSAQALGLGKHNYCRNPDGDAKPWCHVLKNRRLTWEYCDVPSCSTCGLRQYSQPQFEIKGGLFADIASHPWQAAIFAKHRRSPGERFLCGGILISSCWILSAAHCFQERFPPHHLTVILGRTYRVVPGEEEQKFEVEKYIVHKEFDDDTYDNDIALLQLKSDSSRCAQESSVVRTVCLPPADLQLPDWTECELSGYGKHEALSPFYSERLYEAHVRLYPSSRCTSQHLLNRTVTDNMLCAGDTRSGGPQANLHDACQGDSGGPLVCLNDGRMTLVGIISWGLGCGQKDVPGVYTKVTNYLDWIRDNMRP
As for B1, in data set [1], the Fold stimulation of kcat/Km by fibrin amounted to 26000 fold; the “fibrin selectivity factor (specific activity in the presence of fibrin over that in the presence of fibrinogen)” value is listed as “The fibrin selectivity factor for single chain t-PA/R275E,K429Y, however, is 146”; the “stimulation of plasminogen activation by co-factor (indirect chromogenic assay)” value (shortened to “stimulation of plasminogen activation”) is listed as “dramatically stimulated by fibrin monomers”. Moreover, in the data set with fibrinogen, the “stimulation of plasminogen activation” value was “virtually nonresponsive”. In addition, the “stimulation of plasminogen activation” value in data set [2] was “virtually nonresponsive”. Besides, in the data set with lys-plasminogen, P00747, the Kcat of plasminogen activation in the absence of a cofactor amounted to 0.00046 s⁻¹, the Kcat of plasminogen activation in the presence of fibrin was 0.1 s⁻¹, the Kcat/Km of plasminogen activation in the absence of a cofactor was 78 M⁻¹ s⁻¹ and the Kcat/Km of plasminogen activation in the presence of fibrin was 2e+06 M⁻¹ s⁻¹. Moreover, in the data set with lys-plasminogen, P00747, the Km of plasminogen activation in the absence of a cofactor was 5.9 µM; the Km of plasminogen activation in the presence of fibrin came out at 0.07 µM; the “fold reduction of activity toward plasminogen without co-factor, against single chain t-PA/R275E” value is “reduced by a factor of 17”; the “percent of the activity of single chain t-PA/R275E toward plasminogen in the presence of fibrin” value was “approximately 40% of the activity of single chain t-PA/R275E”.
